The text below walks through data of patent US20220062405A1.

Targets include FcRn (human) (UniProt P55899); FcγRI (CD64) (human) (UniProt P12314); FcγRIIIa (CD16a) (human) (UniProt P08637); FcγRIIa (CD32a) (human) (UniProt P12318).
The target of assay [1] is FcγRIIb/c (CD32b/c) (human) (UniProt P31994).
The target in assay [2] is diphtheria toxin (target of Diphteria antitoxin) (UniProt P00588). As to the kind of experiment: specific antibody content of the polyclonal IgG preparation; assay not described.
Assay [3] addresses parvovirus antigen (target of Parvovirus-Ab). The assay is described as above.

UniProt P00588, sequence (P00588 33-567 limits assumed): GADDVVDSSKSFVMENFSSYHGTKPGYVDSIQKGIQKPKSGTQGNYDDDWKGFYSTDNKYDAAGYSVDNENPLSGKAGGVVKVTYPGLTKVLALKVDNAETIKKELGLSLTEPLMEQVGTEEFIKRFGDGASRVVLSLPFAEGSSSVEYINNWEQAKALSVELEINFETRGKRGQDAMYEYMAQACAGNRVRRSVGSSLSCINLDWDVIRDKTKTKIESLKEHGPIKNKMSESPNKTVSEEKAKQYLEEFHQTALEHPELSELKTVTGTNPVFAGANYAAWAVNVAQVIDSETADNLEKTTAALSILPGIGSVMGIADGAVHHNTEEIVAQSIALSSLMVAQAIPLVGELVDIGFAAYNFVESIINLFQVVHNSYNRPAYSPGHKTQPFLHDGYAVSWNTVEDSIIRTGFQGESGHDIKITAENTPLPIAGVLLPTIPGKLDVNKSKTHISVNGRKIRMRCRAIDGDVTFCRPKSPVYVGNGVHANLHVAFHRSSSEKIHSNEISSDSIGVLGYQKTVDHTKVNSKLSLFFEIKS

The term Kd denotes the constant that tells how readily two partners part at equilibrium. Read a high Kd as weaker binding. As a reminder, the koff is a measure of how fast the partners let go of each other. A low value points to a long-lived complex. Broadly, the kon is the second-order rate constant of association. Higher therefore signals faster complex formation. As for IgG (Hizentra) (antibody), the Kd with FcRn (human) is 1 nM; with FcγRI (CD64) (human), 19.7 nM; with FcγRIIIa (CD16a) (human), 496 nM; in the assay with FcγRIIa (CD32a) (human) it was 213 nM; in assay [1], 2700 nM. The koff with FcRn (human) stood at 0.0025 s⁻¹; with FcγRI (CD64) (human), 0.0017 s⁻¹; with FcγRIIIa (CD16a) (human) it was 0.036 s⁻¹; with FcγRIIa (CD32a) (human) it was 0.055 s⁻¹. The kon with FcRn (human) was 2.5e+06 M⁻¹ s⁻¹; with FcγRI (CD64) (human), 87000 M⁻¹ s⁻¹; with FcγRIIIa (CD16a) (human), 73000 M⁻¹ s⁻¹; with FcγRIIa (CD32a) (human), 260000 M⁻¹ s⁻¹. Moreover, in assay [2], the Diphteria antitoxin (IU/mL) worked out at 18.1 IU/mL. In addition, the Parvovirus-Ab (IU/mL) is 595 IU/mL in assay [3] (original Hizentra formulation) and 509 IU/mL in assay [3] (re-formulated Hizentra).
